Assay results from US20220281981A1 (INVECTYS, published 2022).

Columns and labels:
HLA-G6 = HLA-G6 (human, UniProt P17693-6 25-227, limits assumed); assay: flow cytometry, titration of 15E7, readout % of binding
HLA-G1/5 β2M-free = target: T1, HLA-G1/5 β2M-free (human, UniProt P17693 25-298, limits assumed); assay: as above
T1 construct: Printed as one antigen, 'HLA-G1/5 β2M-free'; also called HLA-G1/β2M free; HLA-G5/β2M free

[1] = target: T2, HLA-G1 β2M-associated, on lentivirus-transduced cells (Jurkat HLA-G1Lv, K562 HLA-G1Lv) (human, UniProt P17693 25-338; P61769 21-119); assay: flow cytometry on Jurkat HLA-G1Lv and K562 HLA-G1Lv cells, GAM-PE detection
T2 construct: whole, on cells; also called HLA-G1 B2M-associated
Description: Flow cytometry analyses were performed using LSR FORTESSA (Beckton Dickinson, Le Pont-de-Claix, France); data were analyzed with FlowJo X software (Tree star, Ashland, USA).

B1: 15E7 monoclonal antibody (antibody, V domains shown)
VH: QVQLQQPGAELVRPGSSVKLSCKASGYTFTDYWMDWVKQRPGQGLEWIGTIYPSDSSTHYNQEFKGKATMTVDKSSSTAYMHLSSLTSEDSAVYYCAREGLAGVFYFDYWGQGTTLTVSS
VL: DVLMTQIPFSLPVSLGDQASISCRSSQSIVHRSGNTYLEWYLQKPGQSPKLLIYKVSNRFSGVPDRFSGSGSGTDFTLKISRVEAEDLGVYYCFQGSHLPPTFGGGTTLEIK
notes: Tested as a monoclonal antibody in flow cytometry and detected with goat anti-mouse IgG; also called 15E7 antibody; anti HLA-G-α3 β2M-free 15E7 antibody
EC50 (read off the curve) (HLA-G6): ~0.1 µg/mL
EC50 (read off the curve) (HLA-G1/5 β2M-free): ~0.02 µg/mL
binding result [1]: no binding
